The text below walks through data of US20110301073, “Novel DNA-binding proteins and uses thereof” (Sangamo BioSciences, Inc., published 2011).

The target in one data set is T1, TALE13 +50 FokI (Xanthomonas axonopodis (engineered)).
T1 chain: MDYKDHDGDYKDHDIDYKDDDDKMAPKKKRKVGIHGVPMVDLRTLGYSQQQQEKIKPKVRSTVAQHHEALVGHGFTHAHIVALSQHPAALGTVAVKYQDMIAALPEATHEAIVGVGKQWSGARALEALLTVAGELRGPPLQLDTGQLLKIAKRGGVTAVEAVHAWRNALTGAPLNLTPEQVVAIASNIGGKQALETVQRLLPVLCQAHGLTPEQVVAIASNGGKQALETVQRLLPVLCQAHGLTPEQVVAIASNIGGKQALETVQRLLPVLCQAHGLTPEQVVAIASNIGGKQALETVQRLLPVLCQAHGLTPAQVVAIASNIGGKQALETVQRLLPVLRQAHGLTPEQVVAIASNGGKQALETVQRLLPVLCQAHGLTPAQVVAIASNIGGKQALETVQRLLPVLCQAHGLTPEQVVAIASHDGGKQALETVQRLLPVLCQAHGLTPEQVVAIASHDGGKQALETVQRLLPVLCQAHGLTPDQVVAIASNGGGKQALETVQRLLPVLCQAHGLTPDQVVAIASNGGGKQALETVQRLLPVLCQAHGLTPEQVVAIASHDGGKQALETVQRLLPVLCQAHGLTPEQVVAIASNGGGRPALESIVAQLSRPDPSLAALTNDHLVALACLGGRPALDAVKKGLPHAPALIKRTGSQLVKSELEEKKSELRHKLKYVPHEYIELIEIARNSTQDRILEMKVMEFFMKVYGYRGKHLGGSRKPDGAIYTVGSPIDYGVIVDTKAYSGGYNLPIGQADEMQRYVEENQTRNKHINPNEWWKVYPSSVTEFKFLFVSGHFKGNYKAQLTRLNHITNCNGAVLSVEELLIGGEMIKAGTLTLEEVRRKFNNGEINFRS
The experiment in a line: cleavage_in_vitro; two inverted sites, 16 bp gap; NEB Buffer 2, 37 C. The note with it: tags: FLAG, NLS, chain copies: 2. How it is done: (§1) TALE domain fusions were also constructed using Fold cleavage half domains. For these examples, wild type FokI half cleavage domains were used so that for nuclease activity, a homodimer must be formed from two of the fusions. For these fusions, the TALE13 DNA binding domain was fused to each FokI half domain by cloning the TALE DNA binding domain into a plasmid adjacent to FokI-specifying sequence. In addition, various linkers were tested for use between the DNA binding domain and the nuclease domain. Linkers L2 and L8 were used which are as follows: L2=GS (SEQ ID NO:71) and L8=[…] (SEQ ID NO:72). The target sites were cloned into a TOPO2.1 target vector (Invitrogen) with varying gap spacings between each target binding site such that the two were separated from each other by 2 to 22 bp. PCR amplification of an approximately 1 kb region of the target vector was done to generate the target DNAs. The TALE DNA binding domains were also truncated as described previously, and are described using the same nomenclature as described above in Examples 2 and 6. The TALE domain nuclease fusion clones were expressed in the TNT Rabbit Reticulocyte Lysate system by adding 5 μL of water containing 250 nanograms of the nuclease fusion clone plasmid to 20 μL of lysate and incubating at 30° C. for 90 minutes.
(§2) The lysate was then used to cleave the target DNAs as follows: 2.5 μL of lysate were added to a 50 μL reaction containing 50 nanograms of PCR-amplified target DNA and a final Buffer 2 (New England Biolabs) concentration of 1×. The cleavage reaction was for one hour at 37° C., followed by a 20 minute heat inactivation stage at 65° C. The reaction was then centrifuged at high speed to separate the target DNA from the lysate, causing the lysate to condense into a pellet in the reaction well. The DNA-containing supernatant was pipetted off and run on an ethidium bromide-stained agarose gel (Invitrogen) to separate intact target DNA from cleaved target DNA. The agarose gel was then analyzed using AlphaEaseFC (Alpha Innotech) software to measure the amount of target DNA present in the large uncleaved DNA band and the two smaller DNA bands resulting from a single cleavage event of the target DNA. The percentage of cleaved DNA out of the total amount of target DNA loaded into the gel represents the percent cleavage in each reaction.

A further data set concerns the target T2, TALE13 +63 FokI (Xanthomonas axonopodis (engineered)).
T2 chain: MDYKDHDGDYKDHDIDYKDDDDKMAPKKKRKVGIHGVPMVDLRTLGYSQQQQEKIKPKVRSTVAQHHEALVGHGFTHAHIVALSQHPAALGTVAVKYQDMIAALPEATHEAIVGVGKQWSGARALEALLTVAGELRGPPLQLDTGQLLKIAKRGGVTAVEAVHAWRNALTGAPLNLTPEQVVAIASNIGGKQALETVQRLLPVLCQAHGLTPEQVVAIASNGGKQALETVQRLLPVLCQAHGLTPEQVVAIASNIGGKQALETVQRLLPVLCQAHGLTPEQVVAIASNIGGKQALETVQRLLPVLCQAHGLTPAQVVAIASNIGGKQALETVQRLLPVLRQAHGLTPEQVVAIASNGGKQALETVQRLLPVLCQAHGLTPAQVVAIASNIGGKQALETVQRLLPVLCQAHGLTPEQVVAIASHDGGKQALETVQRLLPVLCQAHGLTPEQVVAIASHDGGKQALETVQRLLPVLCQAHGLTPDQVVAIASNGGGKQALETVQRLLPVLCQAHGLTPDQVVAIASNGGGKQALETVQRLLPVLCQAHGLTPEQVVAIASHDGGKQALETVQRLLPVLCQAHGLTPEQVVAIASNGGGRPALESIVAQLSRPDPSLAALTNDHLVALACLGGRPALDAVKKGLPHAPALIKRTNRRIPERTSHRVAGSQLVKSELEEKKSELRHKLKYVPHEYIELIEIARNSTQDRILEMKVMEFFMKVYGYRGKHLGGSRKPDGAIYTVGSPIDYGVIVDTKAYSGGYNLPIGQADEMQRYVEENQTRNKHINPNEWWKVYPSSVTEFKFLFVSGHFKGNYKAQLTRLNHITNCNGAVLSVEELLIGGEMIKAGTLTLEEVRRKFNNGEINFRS
The data set is described as above. The note with it: tags: FLAG, NLS, chain copies: 2. The protocol:
as §1, §2

B1: TALE13 target (dsDNA)
DNA 1: TATAAATACCTTCT
DNA 2: AGAAGGTATTTATA
Turning to B1, the activity was 83 % cleavage with TALE13 +50 FokI and 70 % cleavage with TALE13 +63 FokI.
